Data from article PMC11503520.
Where “and” joins values, the source holds several entries; their conditions need not be identical. Identical values can stand only once.

Columns and labels:
[1] = target: AAV8 viral protein 3 (VP3) (adeno-associated virus serotype 8); experiment: CE-SDS of purified capsids; AAV8-H4C1, not separated into EP and FP by DG-UC: ratio of the mixture; VP3 is the sum of VP3 and VP3 clip
[2] = target: AAV8 viral protein 3 (VP3) (adeno-associated virus serotype 8); experiment: native MS; orbitrap-based CDMS of full particles (FP); mass of the genome subtracted from the mass distribution of FP, then VP stoichiometry of the capsid of FP estimated as for EP
[3] = target: AAV8 viral protein 3 (VP3) (adeno-associated virus serotype 8); experiment: CE-SDS of purified capsids; full particles (FP) separated by DG-UC, denatured with SDS and mercaptoethanol, 60 °C 3 min; VP components detected at 214 nm; VP3 is the sum of VP3 and VP3 clip
[4] = target: AAV8 viral protein 3 (VP3) (adeno-associated virus serotype 8); experiment: CE-SDS of purified capsids; empty particles (EP) separated by DG-UC, denatured with SDS and mercaptoethanol, 60 °C 3 min; VP components detected at 214 nm; VP3 is the sum of VP3 and VP3 clip
[5] = target: AAV8 viral protein 3 (VP3) (adeno-associated virus serotype 8); experiment: native MS; orbitrap-based CDMS of empty particles (EP) of AAV8-H4C1, AAV8-FIXp and AAV8-FIXp hFIX mini-intron after buffer exchange into 200 mM ammonium acetate; average VP stoichiometry estimated from the mass distribution by assigning integer stoichiometries (0-60 for each VP) and weighted averaging

## AAV8 viral protein 3 (VP3) (natural protein)
[1]
  VP stoichiometry VP1: VP2: VP3 (copies of VP3 in the capsid): 47
[2]
  VP stoichiometry VP1: VP2: VP3 (copies of VP3 in the capsid): 51.7 and 44.2 and 51
[3]
  VP stoichiometry VP1: VP2: VP3 (copies of VP3 in the capsid): 46.1 and 47.8
[4]
  VP stoichiometry VP1: VP2: VP3 (copies of VP3 in the capsid): 45.4
[5]
  VP stoichiometry VP1: VP2: VP3 (copies of VP3 in the capsid): 48

## AAV8 viral protein 2 (VP2) (natural protein)
[1]
  VP stoichiometry VP1: VP2: VP3 (copies of VP2 in the capsid): 7.8
[2]
  VP stoichiometry VP1: VP2: VP3 (copies of VP2 in the capsid): 6.6 and 12.3 and 7.1
[3]
  VP stoichiometry VP1: VP2: VP3 (copies of VP2 in the capsid): 9.3 and 7.5
[4]
  VP stoichiometry VP1: VP2: VP3 (copies of VP2 in the capsid): 9.7 and 9.6
[5]
  VP stoichiometry VP1: VP2: VP3 (copies of VP2 in the capsid): 9.4

## AAV8 viral protein 1 (VP1) (natural protein)
[1]
  VP stoichiometry VP1: VP2: VP3 (copies of VP1 in the capsid): 5.1
[2]
  VP stoichiometry VP1: VP2: VP3 (copies of VP1 in the capsid): 1.7 and 3.4 and 1.8
[3]
  VP stoichiometry VP1: VP2: VP3 (copies of VP1 in the capsid): 4.6 and 4.7
[4]
  VP stoichiometry VP1: VP2: VP3 (copies of VP1 in the capsid): 4.9 and 5
[5]
  VP stoichiometry VP1: VP2: VP3 (copies of VP1 in the capsid): 2.5 and 2.6
